The target in test [1] is hemagglutinin of B/Massachusetts/2/2012 (influenza virus B/Massachusetts/2/2012). The test is described as follows: dot blot, 4M urea; inactivated virus (egg/NIBSC), dot 14.
For test [2], the target named is T1, hemagglutinin of H3N2 A/Hong Kong/8/1968 (influenza virus H3N2 A/Hong Kong/8/1968). The test is described as follows: dot blot, 4M urea; rHA (Imm. Techn.), dot 5.
For test [3], the target named is hemagglutinin of H8N4 A/Turkey/Ontario/6118/68 (influenza virus H8N4 …, UniProt P03456 16-565). The test is described as follows: Western blot; virus, eggs. A general note: A western blot detects proteins with antibodies after separation by electrophoresis.
Test [4] deals with hemagglutinin of H9N2 A/Turkey/Wisconsin/1/66 (influenza virus H9N2 …, UniProt P03457 19-560). The test is described as follows: Western blot; virus, eggs.
Test [5] deals with hemagglutinin of H13N6 A/Gull/Maryland/704/77 (influenza virus H13N6 …, UniProt P13103 19-566). The test is described as follows: Western blot; virus, eggs.
In test [6] the target is hemagglutinin of H2N2 A/Singapore/1/57 (influenza virus H2N2 A/Singapore/1/57, UniProt Q67333 16-562). Nature of the test: Western blot; virus, eggs.
The target in test [7] is hemagglutinin of H7N3/A/Turkey/Oregon/71 (influenza virus H7N3 A/Turkey/Oregon/71, UniProt P03458 19-560). The test is described as follows: Western blot; virus, eggs.
Test [8] deals with hemagglutinin of H4N6 A/Duck/Czechoslovakia/56 (influenza virus H4N6 …, UniProt P19696 17-564). The test is described as follows: Western blot; virus, eggs.
Test [9] has as its target hemagglutinin of H12N5 A/Duck/Alberta/60/76 (influenza virus H12N5 …, UniProt P03446 17-564). The test is described as follows: Western blot; virus, MDCK cells.
Test [10] concerns the target T2, hemagglutinin of H1N1 A/California/06/2008 (influenza virus H1N1 …). Nature of the test: dot blot, 4M urea; rHA (Imm. Techn.), dot 2.
The target in test [11] is T1, hemagglutinin of H3N2 A/Hong Kong/8/1968. The test is described as follows: dot blot, 4M urea; virus (HEK293/NRC), dot 19.
In test [12] the target is T3, hemagglutinin of H3N2 A/Brisbane/10/2007 (influenza virus H3N2 A/Brisbane/10/2007).
T3 construct: rHA (BEI Resources)
Nature of the test: dot blot, 4M urea; rHA (BEI Res.), dot 6.

The target in test [13] is T2, hemagglutinin of H1N1 …. Nature of the test: dot blot, 4M urea; inactivated virus (egg/NIBSC), dot 12.
Test [14] concerns the target hemagglutinin of H3N2 A/Wisconsin/67/2005 (influenza virus H3N2 A/Wisconsin/67/2005). Nature of the test: dot blot, 4M urea; rHA (Prot. Sc.), dot 4.
The target in test [15] is hemagglutinin of B/Brisbane/60/2008 (influenza virus B/Brisbane/60/2008). Nature of the test: dot blot, 4M urea; rHA (Prot. Sc.), dot 11.
The target of test [16] is hemagglutinin of H3N2 A/Texas/50/2012 (influenza virus H3N2 A/Texas/50/2012). Nature of the test: dot blot, 4M urea; inactivated virus (egg/NIBSC), dot 13.
For test [17], the target named is T4, hemagglutinin of H1N1 A/Puerto Rico/8/1934 (influenza virus H1N1 A/Puerto …, UniProt P03452 18-528). The test is described as follows: dot blot, 4M urea; rHA (Prot. Sc.), dot 1.
For test [18], the target named is T4, hemagglutinin of H1N1 A/Puerto …. The test is described as follows: dot blot, 4M urea; virus (HEK293/NRC), dot 17.

B1: F211-10A9 (antibody, V domains shown)
VH: QIQLQQSGPELVKPGAPVKISCKASGYTFTDYYIHWVNQRPGQGLEWIGYIYPGNGHTVYNQKFKVRATLTADNPSSTAYLQLNSLTSEDSGVYFCAYDLFNYWGQGTLVTVSA
VL: DIVMTQSPSSLAMSVGQKVTMSCKSSQSLLNSDTQKNFLAWYQQKPGQSPKILVYFASTKESGVPDRFIGSGSGTDFTLTITSVQAEDLADYFCQQYYSIPLTFGAGTKLELK
Take B1: the signal intensity in test [1] is 240 arbitrary fluorescent units; in [2] it was 5670 arbitrary fluorescent units; in [10], 2780 arbitrary fluorescent units; in test [11], 319 arbitrary fluorescent units; in test [12], 11500 arbitrary fluorescent units; in test [13], 227 arbitrary fluorescent units. Further, the signal intensity in test [14] was 791 arbitrary fluorescent units; in test [15], 25800 arbitrary fluorescent units; in test [16] it was 412 arbitrary fluorescent units; in test [17] it was 2520 arbitrary fluorescent units; in test [18], 7450 arbitrary fluorescent units. Further, the binding result in test [3], in [4], in test [5], in test [6], in test [7] and in [8] was “binds” throughout. In addition, the binding result in test [9] is “binds”.

B2: F211-11H12 (antibody, V domains shown)
VH: DVQLQESGPGLVKPSQSLSLTCSVTGYSITSDYYWNWIRQFPGNKLEWMAYIGYDGTKNYNPSLKNRISITRDTSKNQFFLKLNSVTTDDTATYYCTRDRANWDDYFDYWGQGTTLTVSS
VL: DIVMSQSPSSLAVSVGEKVTMSCKSSQSLLNSRNQKNHLAWYQQKPGQSPKLLIYWASTRESGVPDRFTGDGSGTDFTLTISSVKAEDLAVYYCQQYYTYRTFGGGTKLEIK
For the molecule B2, the signal intensity in test [1] was 9930 arbitrary fluorescent units; in [2] it was 464 arbitrary fluorescent units; in test [10], 5120 arbitrary fluorescent units; in test [11], 201 arbitrary fluorescent units; in test [12], 280 arbitrary fluorescent units; in [13], 14400 arbitrary fluorescent units. In addition, the signal intensity was 176 arbitrary fluorescent units in [14]; 38500 arbitrary fluorescent units in [15]; 201 arbitrary fluorescent units in test [16]; 20300 arbitrary fluorescent units in [17]; 6540 arbitrary fluorescent units in test [18]. Further, the binding result in test [7] and in test [8] was “no binding (tested: 2µg/ml)” each time.

B3: F211-9D1 (antibody, V domains shown)
VH: DVQLQESGPGLVKPSQSLSLTCSVTGYSITSDYYWNWIRQFPGNKLEWMAYIGYDGSKNYNPSLKNRISITRDTSKNQFFLKLNSVTTDDTATYYCTRDRANWDDYFDYWGQGTTLTVSS
VL: DIVMSQSPSSLAVSVGEKVTMSCKSSQSLLNSRNQKNHLAWYQQKPGQSPKLLIYWASTRESGVPDRFSGDGSGTDFTLTISSVKAEDLAVYYCQQYYTYRTFGGGTKLEIK
On to B3, for which the signal intensity in [1] is 10500 arbitrary fluorescent units; in test [2] it was 651 arbitrary fluorescent units; in test [10] it was 5780 arbitrary fluorescent units; in test [11], 108 arbitrary fluorescent units; in [12], 362 arbitrary fluorescent units; in [13], 17400 arbitrary fluorescent units. Also, the signal intensity in [14] was 70 arbitrary fluorescent units; in test [15] it was 41100 arbitrary fluorescent units; in [16], 238 arbitrary fluorescent units; in test [17], 21400 arbitrary fluorescent units; in [18], 7810 arbitrary fluorescent units.

(Values after US20190352376A1 (NATIONAL RESEARCH COUNCIL OF CANADA, published 2019).)
